Measurements: publication PMC3728988, “Kinetic mechanism of the dimeric ATP sulfurylase from plants” (Bioscience Reports, 2013)

T1: soybean ATP sulfurylase isoform 1 (GmATPS1) (Glycine max, UniProt Q8SAG1)
T1 construct: homodimer
T1 sequence (Q8SAG1 49-462): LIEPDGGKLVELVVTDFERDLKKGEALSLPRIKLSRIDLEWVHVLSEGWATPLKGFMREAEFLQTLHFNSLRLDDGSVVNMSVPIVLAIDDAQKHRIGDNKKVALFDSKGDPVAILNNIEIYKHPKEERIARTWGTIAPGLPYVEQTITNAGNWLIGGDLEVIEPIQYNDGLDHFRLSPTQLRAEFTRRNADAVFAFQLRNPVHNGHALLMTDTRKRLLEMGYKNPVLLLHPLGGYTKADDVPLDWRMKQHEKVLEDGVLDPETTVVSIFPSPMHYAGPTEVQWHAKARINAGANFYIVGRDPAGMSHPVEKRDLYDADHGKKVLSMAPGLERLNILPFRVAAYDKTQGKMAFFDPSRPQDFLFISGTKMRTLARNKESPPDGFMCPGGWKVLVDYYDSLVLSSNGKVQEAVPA

B1: soybean ATP sulfurylase isoform 1 (GmATPS1) (Glycine max) (protein)
chain: LIEPDGGKLVELVVTDFERDLKKGEALSLPRIKLSRIDLEWVHVLSEGWATPLKGFMREAEFLQTLHFNSLRLDDGSVVNMSVPIVLAIDDAQKHRIGDNKKVALFDSKGDPVAILNNIEIYKHPKEERIARTWGTIAPGLPYVEQTITNAGNWLIGGDLEVIEPIQYNDGLDHFRLSPTQLRAEFTRRNADAVFAFQLRNPVHNGHALLMTDTRKRLLEMGYKNPVLLLHPLGGYTKADDVPLDWRMKQHEKVLEDGVLDPETTVVSIFPSPMHYAGPTEVQWHAKARINAGANFYIVGRDPAGMSHPVEKRDLYDADHGKKVLSMAPGLERLNILPFRVAAYDKTQGKMAFFDPSRPQDFLFISGTKMRTLARNKESPPDGFMCPGGWKVLVDYYDSLVLSSNGKVQEAVPA

Columns and labels:
[1] = biological target: T1, soybean ATP sulfurylase isoform 1 (GmATPS1); assay: dead-end inhibition kinetics, coupled spectrophotometric assay of APS synthesis; type: biochemical
purified protein [2] = substrate: Nc1ncnc2c1ncn2[C@@H]1O[C@H](COP(=O)(O)OP(=O)(O)OP(=O)(O)O)[C@@H](O)[C@H]1O; assay: purified protein; conditions: Mg2+ binds first in the forward reaction
purified protein [3] = substrate: O=S(=O)(O)O; assay: purified protein; conditions: ATP, Mg2+ binds after ATP; chlorate competes with it

Molecule | Ki [1] | Km (purified protein [2]) | Km (purified protein [3])
[O-][Cl+2]([O-])O [chlorate] | 103 ± 19 µM | – | –
B1 | – | 221 ± 41 µM | 1,030±280 μM
